In US20110076303A1 one finds expression level of luciferase (reporter with a Foxn1 binding region upstream of an SV40 minimum promoter), relative to Foxn1 only = 1 data, which are given here for one substance.

In this assay the target is Foxn1 having a Flag tag (expressed from the Foxn1 expression vector, CMV promoter, in mouse epidermal cells). Put plainly: cell-based or functional assay.

For “AFF-4 having a C-Myc tag (expressed from the AFF-4 expression vector, CMV promoter, in mouse epidermal cells)”, the expression level of luciferase (reporter with a Foxn1 binding region upstream of an SV40 minimum promoter), relative to Foxn1 only = 1 amounted to 5 fold.
